From publication PMC11531568, “Single-molecule imaging and molecular dynamics simulations reveal early activation of the MET receptor in cells” (Nature Communications, 2024) come the findings set out here.

A word on the stoichiometry N: it is the number of molecules, sites or subunits per partner or assembly.

This data set deals with the molecule itself. Description: single-molecule photobleaching step analysis; U-2 OS cells labeled with a single Cy3B-labeled InlB321 variant; number of InlB321 in one spot on the plasma membrane.

Numbering of substitutions follows the chain as printed. Names and notes keep the numbering of the source.

B1: InlB321 K280C variant (with C242A), fluorophore-labeled (domain or fragment)
chain: ETITVPTPIKQIFSDDAFAETIKDNLKKKSVTDAVTQNELNSIDQIIANNSDIKSVQGIQYLPNVTKLFLNGNKLTDIKPLANLKNLGWLFLDENKVKDLSSLKDLKKLKSLSLEHNGISDINGLVHLPQLESLYLGNNKITDITVLSRLTKLDTLSLEDNQISDIVPLAGLTKLQNLYLSKNHISDLRALAGLKNLDVLELFSQEALNKPINHQSNLVVPNTVKNTDGSLVTPEIISDDGDYECPNVKWHLPEFTNEVSFIFYQPVTIGKAKARFHGRVTQPLKE
modifications: Cy3B or ATTO 647N attached by maleimide chemistry to the single cysteine at position 280
notes: Internalin B (InlB), invasion protein of Listeria monocytogenes, amino acids 36-321 of the full-length InlB (cap, leucine-rich repeat and inter-repeat region); The donor-labeled (Cy3B) and acceptor-labeled (ATTO 647N) batches of this variant are written as one molecule; Vector pETM30; also called T variant; tail
Turning to B1, the “stoichiometry N” value is 2.

B2: InlB321 K64C variant (with C242A), fluorophore-labeled (domain or fragment)
chain: B1 chain with K29C, C245K
modifications: Cy3B or ATTO 647N attached by maleimide chemistry to the single cysteine at position 64
notes: Internalin B (InlB), invasion protein of Listeria monocytogenes, amino acids 36-321 of the full-length InlB (cap, leucine-rich repeat and inter-repeat region); The donor-labeled (Cy3B) and acceptor-labeled (ATTO 647N) batches of this variant are written as one molecule; Vector pETM30; also called H variant; head
Consider B2, for which the “stoichiometry N” value was found to be 2.
